Measurements as given in patent publication US20010024831A1.

Target: specific antigen (aa 245-258 of the GCN4 leucine zipper) fused to LexA (yeast)
Assay: yeast two hybrid, LacZ reporter, bait LexA-GCN4 leucine zipper; Empty Vector is printed as 0.18

- Rel. β-gal. activity %: 0.19%
Substance: Gal4 AD-AL5 scFv fusion (ampicillin-binding control scFv AL5) (from UniProt P04386 768-881)
